# Source: patent US20210299212A1, “BINDNG MOLECULES TO TUMOR ASSOCIATED MACROPHAGES AND METHODS OF USE” (Sanford Burnham Prebys Medical Discovery Institute, priority 2018, published 2021)
# Legend:
# Bovine serum albumin = Bovine serum albumin (Bos taurus, UniProt P02769); test: Binding of FAM-peptide to control protein immobilized on a plate; settings: 1 μM, room temperature, 1 h, fluorescence
# Procedure: (§1) To confirm RXRB binds CRV, the binding of FAM-CRV to human recombinant RXRB protein immobilized on a plate was tested. Human RXRB recombinant protein (50 μL, 5 μg/mL) was immobilized in high binding 96-well plate at 4° C. overnight. Bovine serum albumin was used as the control protein. The protein solution was removed and washed one time with PBS. 1% BSA in PBS solution was then added to the wells and incubated at room temperature for 1 h to block the rest available binding sites. After one wash with PBS, RXRB and BSA were incubated with FAM-CRV (100 μL, 1 μM) at room temperature for 1 h. The wells were washed three times with PBS and the fluorescence was measured using a multiplate reader.
# [1] = target: T1, human recombinant RXRB protein (Homo sapiens, UniProt P28702); test: Binding of FAM-peptide to protein immobilized on a plate; settings: 1 μM, room temperature, 1 h, fluorescence
# T1 sequence (P28702 1-533): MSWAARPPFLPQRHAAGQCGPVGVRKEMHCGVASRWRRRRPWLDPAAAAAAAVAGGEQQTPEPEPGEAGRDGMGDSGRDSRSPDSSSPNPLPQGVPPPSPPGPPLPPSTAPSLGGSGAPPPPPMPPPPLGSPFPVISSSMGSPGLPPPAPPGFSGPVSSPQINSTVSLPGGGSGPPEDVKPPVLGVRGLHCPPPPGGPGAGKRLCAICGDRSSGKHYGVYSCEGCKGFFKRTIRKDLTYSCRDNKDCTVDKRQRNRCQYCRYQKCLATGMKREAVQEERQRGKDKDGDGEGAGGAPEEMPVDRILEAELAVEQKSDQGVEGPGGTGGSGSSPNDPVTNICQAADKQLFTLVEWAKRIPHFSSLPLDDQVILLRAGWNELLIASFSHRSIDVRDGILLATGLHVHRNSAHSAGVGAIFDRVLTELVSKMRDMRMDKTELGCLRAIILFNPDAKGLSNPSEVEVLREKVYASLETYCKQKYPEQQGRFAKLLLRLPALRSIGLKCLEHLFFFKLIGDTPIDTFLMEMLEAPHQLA
# Procedure: as §1
# 4T1 tumors = test: Immunofluorescence staining of tissues for FAM-peptide and CD31 at different homing time points; format: in vivo, mouse; settings: 4T1 orthotopic tumor-bearing mice, i.v.
# Procedure: FAM-CRV was intravenously injected into tumor bearing mice. To this end, 4T1 […] breast cancer cells were cultured in Dulbecco's modified Eagle's medium supplemented with 10% fetal bovine serum, 100 U/mL penicillin and 100 μg/mL streptomycin. The […] cell line was authenticated by the DNA Analysis Core Facility at the Sanford Burnham Prebys Medical Discovery Institute (La Jolla, Calif.) and tested negative for mycoplasma contamination. To produce 4T1 tumors, 1×10^6 tumor cells (suspended in 100 μL of PBS) were orthotopically injected into the mammary fat pad of normal BALB/c mice. All animal experimentation received approval from the Animal Research Committee of Sanford Burnham Prebys Medical Discovery Institute. Biodistribution of fluorescein-conjugated peptides (FAM-CRV, FAM-GGS, or FAM-ARA) was examined after intravenous injection of 100 μL peptide solution (1 mg/mL PBS) into the tail vein of a mouse. […] Tissues were collected, fixed with 4% formaldehyde buffer solution and then soaked in 30% sucrose in PBS overnight. Tissues were finally frozen in OCT embedding medium (Tissue-Tek), and sliced for immunofluorescence staining. Tissue sections were blocked in 1% bovine serum albumin with 0.1% Triton X-100 for 1 h, and incubated with appropriate primary antibodies and second antibodies. […]
# [2] = tested on: cells isolated from tumors, spleen, liver, and blood from the 4T1 tumor mice; test: Ex vivo binding to cells isolated from organs of 4T1 mice, flow cytometry; format: cell-based, mouse; settings: 4T1 model, 4° C., 1 h
# Procedure: Mice with tumor size about 8 mm were euthanized under deep anesthesia (Avertin, lack of response to a toe pinch) by cervical dislocation. Target (tumor) and control (e.g., liver, spleen) tissues were collected and further dissociated to single cells. Tumor cells were dissociated using MACS tumor dissociation kit. Cells were then incubated with fluorescent-labeled CRV or other cell markers (CD11b, CD68, F4/80, FAB, EpCAM, CD31) at 4° C. for 1 h. Positive cells were quantified on BD LSRFORTESSA and data were analyzed using FCS Express Version 3 (De Novo Software).
# Bovine serum albumin, sequence (P02769 25-607): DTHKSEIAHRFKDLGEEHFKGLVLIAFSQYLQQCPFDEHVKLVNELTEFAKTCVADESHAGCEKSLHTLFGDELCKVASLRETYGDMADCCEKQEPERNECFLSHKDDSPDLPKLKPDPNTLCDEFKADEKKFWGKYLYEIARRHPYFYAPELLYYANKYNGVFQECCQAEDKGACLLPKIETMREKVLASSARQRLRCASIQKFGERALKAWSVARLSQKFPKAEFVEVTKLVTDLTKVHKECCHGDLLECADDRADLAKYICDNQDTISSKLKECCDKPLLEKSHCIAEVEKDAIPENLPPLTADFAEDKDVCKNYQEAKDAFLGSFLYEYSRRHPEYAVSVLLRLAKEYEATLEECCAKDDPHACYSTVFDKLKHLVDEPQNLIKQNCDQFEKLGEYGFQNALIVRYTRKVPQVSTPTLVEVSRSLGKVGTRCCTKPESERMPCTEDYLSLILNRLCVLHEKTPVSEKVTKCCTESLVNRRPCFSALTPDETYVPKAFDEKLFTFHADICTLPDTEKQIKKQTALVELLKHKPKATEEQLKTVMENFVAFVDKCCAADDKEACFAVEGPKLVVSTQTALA
sequence,measurement,setting,value
CRVLRSGSC [cyclic macrophage-targeting peptide],binding to control protein BSA,Bovine serum albumin,neither peptide bound
same,binding to immobilized RXRB compared to control peptide FAM-GGS,[1],significantly higher binding
"GGSGGSKG [FAM-GGS, FAM-labeled control peptide]",binding to control protein BSA,Bovine serum albumin,neither peptide bound
same,"fluorescence signal in the tumors at homing time points 5, 15, and 60 min",4T1 tumors,no fluorescence signals
same,specific labelling of macrophages in the tumor (ex vivo),[2],could not specifically label macrophages
